Biological target: huPrP23-231 (human) (UniProt P04156)

ICSM-35 (antibody)
IC50: 10.4 nM
Kd: 10 nM
Ki: 20 nM

— patent US20140294844A1
